Results from patent publication US12552837B2, “Bicyclic peptide ligands with detectable moieties and uses thereof” (BicycleRD Limited, priority 2017, dated 2026).
*1 amine or outer side, *2 acyl side, *3 side chain or, on linkers, in order; H or OH if unused. Where a SMILES comes first, the peptide text is derived from it. Bridges are numbered along the chain shown (N, C = ends). [ ]: non-standard residue; d: D form. The star is where a group is joined. DOTA = O=C(O)CN1CCN(CC(=O)O)CCN(CC(=O)*)CCN(CC(=O)O)CC1; 1Nal = N[C@@H](Cc1cccc2ccccc12)C(=O)O; TBMB = c1c(C[*:1])cc(C[*:3])cc1C[*:2]; Tle = CC(C)(C)[C@H](N)C(=O)O

System: HT1080 tumor
Experiment: Organ distribution of 177Lu-labelled peptides in HT1080 xenograft mice
Type: in vivo, BALB/c nu/nu mice
Settings: 1 h post injection

## C[C@H](NC(=O)CN1CCN(CC(=O)O)CCN(CC(=O)O)CCN(CC(=O)O)CC1)C(=O)N[C@H]1CSCc2cc3cc(c2)CSC[C@H](NC(=O)[C@@H](C)NC(=O)[C@H](Cc2cccc4ccccc24)NC(=O)[C@H](CCC(=O)O)NC(=O)[C@H](CC(N)=O)NC(=O)[C@@H](C)NC1=O)C(=O)N[C@@H](CCC(=O)O)C(=O)N[C@@H](CC(=O)O)C(=O)N[C@@H](Cc1ccccc1)C(=O)N[C@@H](Cc1ccc(O)cc1)C(=O)N[C@@H](CC(=O)O)C(=O)N[C@@H](C(C)(C)C)C(=O)N[C@H](C(N)=O)CSC3 [I-23] ({DOTA}-AC[dA]NE[1Nal][dA]CEDFYD[Tle]C-NH2; linker 2-8-15 via TBMB)
  blocking of tumor uptake at a dose of 500 pmoles: slightly blocked
  blocking of tumor uptake using 5 nmoles: nearly completely blocked
  tumor uptake compared to 17-69-07-N144: significantly higher tumor uptake
